Results published in paper PMC12684077.

Biological target: RSV prefusion F (PR-DM) (respiratory syncytial virus A) (UniProt P03420)
Assay: cryo-EM structure

## RSV prefusion F (PR-DM) (from UniProt P03420) (complex)
  stoichiometry N: 3
